Assay results: patent US20230151068A1
Numbering of substitutions follows the chain as printed. Names may count otherwise. Each block holds one binder with its values, some of them ahead of it.

Molecular target: biotinylated His-Avi-TEAD (194-411) (UniProt P28347)
Experiment: SSM screen, enrichment after two rounds of sorting

B2: Y04F variant of SEQ ID NO: 1 (designed binder)
chain: GSPDEFIERAKECCKKGDIQCCLRYFEESGDPNVMLICLFCP
enrichment score: 0.67

B3: E03I variant of SEQ ID NO: 1 (designed binder)
chain: B2 chain with E5I, F6Y
enrichment score: -0.26

B4: E06V variant of SEQ ID NO: 1 (designed binder)
chain: B2 chain with F6Y, E8V
enrichment score: -1.55

B7: Y04V variant of SEQ ID NO: 1 (designed binder)
chain: B2 chain with F6V
enrichment score: -0.75

B8: E06L variant of SEQ ID NO: 1 (designed binder)
chain: B2 chain with F6Y, E8L
enrichment score: -0.4

B9: Y04I variant of SEQ ID NO: 1 (designed binder)
chain: B2 chain with F6I
enrichment score: -0.41

B12: D02L variant of SEQ ID NO: 1 (designed binder)
chain: B2 chain with D4L, F6Y
enrichment score: -3.53

B13: P01A variant of SEQ ID NO: 1 (designed binder)
chain: B2 chain with P3A, F6Y
enrichment score: 0.36

B14: I05V variant of SEQ ID NO: 1 (designed binder)
chain: B2 chain with F6Y, I7V
enrichment score: -0.27

B18: I05A variant of SEQ ID NO: 1 (designed binder)
chain: B2 chain with F6Y, I7A
enrichment score: -1.2

B20: P01L variant of SEQ ID NO: 1 (designed binder)
chain: B2 chain with P3L, F6Y
enrichment score: -2.9

B21: Y04A variant of SEQ ID NO: 1 (designed binder)
chain: B2 chain with F6A
enrichment score: 0.26

B22: E06A variant of SEQ ID NO: 1 (designed binder)
chain: B2 chain with F6Y, E8A
enrichment score: -0.68

B23: D02I variant of SEQ ID NO: 1 (designed binder)
chain: B2 chain with D4I, F6Y
enrichment score: -0.7

B24: P01I variant of SEQ ID NO: 1 (designed binder)
chain: B2 chain with P3I, F6Y
enrichment score: -2.27

B25: D02V variant of SEQ ID NO: 1 (designed binder)
chain: B2 chain with D4V, F6Y
enrichment score: -2.34

B26: P01F variant of SEQ ID NO: 1 (designed binder)
chain: B2 chain with P3F, F6Y
enrichment score: -1.3

B28: D02F variant of SEQ ID NO: 1 (designed binder)
chain: B2 chain with D4F, F6Y
enrichment score: -3.41

B29: I05L variant of SEQ ID NO: 1 (designed binder)
chain: B2 chain with F6Y, I7L
enrichment score: -0.38

B30: E06I variant of SEQ ID NO: 1 (designed binder)
chain: B2 chain with F6Y, E8I
enrichment score: -1.56

B31: R07I variant of SEQ ID NO: 1 (designed binder)
chain: B2 chain with F6Y, R9I
enrichment score: -3.98

B32: P01V variant of SEQ ID NO: 1 (designed binder)
chain: B2 chain with P3V, F6Y
enrichment score: -0.59

B34: D02A variant of SEQ ID NO: 1 (designed binder)
chain: B2 chain with D4A, F6Y
enrichment score: -1.43

B35: E03F variant of SEQ ID NO: 1 (designed binder)
chain: B2 chain with E5F, F6Y
enrichment score: 0.32

B36: Y04L variant of SEQ ID NO: 1 (designed binder)
chain: B2 chain with F6L
enrichment score: -1.81

B37: R07L variant of SEQ ID NO: 1 (designed binder)
chain: B2 chain with F6Y, R9L
enrichment score: -0.39

B38: R07A variant of SEQ ID NO: 1 (designed binder)
chain: B2 chain with F6Y, R9A
enrichment score: 0.28

B40: E03V variant of SEQ ID NO: 1 (designed binder)
chain: B2 chain with E5V, F6Y
enrichment score: -1.39

B41: E03A variant of SEQ ID NO: 1 (designed binder)
chain: B2 chain with E5A, F6Y
enrichment score: -2.02

B43: E03L variant of SEQ ID NO: 1 (designed binder)
chain: B2 chain with E5L, F6Y
enrichment score: 0.32

Next, values leading:

enrichment score: 2.68
B1: K09T variant of SEQ ID NO: 1 (designed binder)
chain: B2 chain with F6Y, K11T

enrichment score: -9.93
B5: A08L variant of SEQ ID NO: 1 (designed binder)
chain: B2 chain with F6Y, A10L

enrichment score: -4.43
B6: A08V variant of SEQ ID NO: 1 (designed binder)
chain: B2 chain with F6Y, A10V

enrichment score: -1.83
B10: E10L variant of SEQ ID NO: 1 (designed binder)
chain: B2 chain with F6Y, E12L

enrichment score: -8.88
B11: K09V variant of SEQ ID NO: 1 (designed binder)
chain: B2 chain with F6Y, K11V

enrichment score: -2.31
B15: R07V variant of SEQ ID NO: 1 (designed binder)
chain: B2 chain with F6Y, R9V

enrichment score: -11.2
B16: K09L variant of SEQ ID NO: 1 (designed binder)
chain: B2 chain with F6Y, K11L

enrichment score: -8.31
B17: A08I variant of SEQ ID NO: 1 (designed binder)
chain: B2 chain with F6Y, A10I

enrichment score: -1.57
B19: E10T variant of SEQ ID NO: 1 (designed binder)
chain: B2 chain with F6Y, E12T

enrichment score: -3.03
B27: K09I variant of SEQ ID NO: 1 (designed binder)
chain: B2 chain with F6Y, K11I

enrichment score: -1.27
B33: K09A variant of SEQ ID NO: 1 (designed binder)
chain: B2 chain with F6Y, K11A

enrichment score: -0.65
B39: E10I variant of SEQ ID NO: 1 (designed binder)
chain: B2 chain with F6Y, E12I

enrichment score: -0.24
B42: E10A variant of SEQ ID NO: 1 (designed binder)
chain: B2 chain with F6Y, E12A

enrichment score: -1.77
B44: E10V variant of SEQ ID NO: 1 (designed binder)
chain: B2 chain with F6Y, E12V
